Measurements taken from patent US20080279855A1, “Dna Replication Modulating Peptides, Nucleic Acids Encoding Them, and Their Use in Pharmaceutical Compositions” (CENTRE NATIONAL DE LA RECHERCHE SCIENTIFIQUE, priority 2004, published 2008).
Entries after “also recorded” stand apart in the source; their conditions may differ.

B1: HsGem(76-160): deletion mutant of human Geminin, residues 76-160, hexahistidine-tagged, expressed in E. coli (protein)
chain: KNLGGVTQESFDLMIKENPSSQYWKEVAEKRRKALYEALKENEKLHKEIEQKDNEIARLKKENKELAEVAEHVQYMAELIERLNG
modifications: hexahistidine tag
notes: deletion mutant of human Geminin, residues 76-160, hexahistidine-tagged, expressed in E. coli
B2: wild type protein: total amino acid sequence of human Geminin, about 25 kDa negative regulator of genome replication (protein, listed as Homo sapiens)
chain: MNPSMKQKQEEIKENIKNSSVPRRTLKMIQPSASGSLVGRENELSAGLSKRKHRNDHLTSTTSSPGVIVPESSENKNLGGVTQESFDLMIKENPSSQYWKEVAEKRRKALYEALKENEKLHKEIEQKDNEIARLKKENKELAEVAEHVQYMAELIERLNGEPLDNFESLDNQEFDSEEETVEDSLVEDSEIGTCAEGTVSSSTDAKPCI
B3: HsGem(80-212): form of HsGeminin (residues 80-212) with the coiled-coil domain plus the entire carboxy-terminal part (protein)
chain: GVTQESFDLMIKENPSSQYWKEVAEKRRKALYEALKENEKLHKEIEQKDNEIARLKKENKELAEVAEHVQYMAELIERLNGEPLDNFESLDNQEFDSEEETVEDSLVEDSEIGTCAEGTVSSSTDAKPCI
B4: HsGem(82-160): deletion mutant of human Geminin, residues 82-160, hexahistidine-tagged, expressed in E. coli (protein)
chain: TQESFDLMIKENPSSQYWKEVAEKRRKALYEALKENEKLHKEIEQKDNEIARLKKENKELAEVAEHVQYMAELIERLNG
modifications: hexahistidine tag
notes: deletion mutant of human Geminin, residues 82-160, hexahistidine-tagged, expressed in E. coli
B5: HsGem(82-145): deletion mutant of human Geminin, residues 82-145, hexahistidine-tagged, expressed in E. coli (protein)
chain: TQESFDLMIKENPSSQYWKEVAEKRRKALYEALKENEKLHKEIEQKDNEIARLKKENKELAEVA

Tested on: DNA synthesis in Xenopus egg extracts
Experiment: in vitro DNA replication (DNA synthesis inhibition) assay in Xenopus egg extracts, alpha-32P dCTP incorporation
Type: biochemical
Conditions: for inhibition of DNA synthesis (in words): sperm nuclei 3 ng/μl, 2 hours at room temperature
Method: The capacity of a compound to inhibit DNA replication can be measured as described in Example 3, by following the general method given in Blow, J. J. & Laskey, R. A. (1986). Initiation of DNA replication in nuclei and purified DNA by a cell-free extract of Xenopus eggs. Cell 47, 577-87
FIG. 3A represents the activity of HsGeminin deletion mutants. The DNA synthesis inhibition activity of a series of HsGeminin deletion mutant proteins was measured by incubation in Xenopus egg extracts. […] DNA synthesis was measured by incorporation of a radioactive label DNA precursor (dCTP) upon 2 hours incubation at room temperature. Numbers indicate the amino-acids of the HsGeminin protein. LZ=coiled-coil domain.
In order to determine whether a homodimer form of Geminin is functional, the Inventors have tested the ability of this peptide to inhibit DNA synthesis in an in vitro DNA replication assay derived from Xenopus eggs^18.
Briefly, Xenopus egg extracts were prepared as previously described^35. Inhibition assays were carried out in a 20 μl reaction containing 3 ng/μl of sperm nuclei and the indicated amounts of proteins at 1:40 ratio (protein to extract). Replication was measured by incorporation of α^32P dCTP following 2 hours incubation at room temperature.

Row | Molecule | interference with DNA synthesis at concentration much higher than wild-type protein (e.g. 320 nM) | inhibition of DNA synthesis (in words) | inhibition of DNA synthesis (in words) (listed as HsGeminin (residues 80-212)) | inhibition of DNA synthesis (in words) (listed as mutant 82-145)
1 | HsGem-LZ: residues Leu110-Ala145 of human Geminin with an extra N-terminal capping Thr residue, made by Fmoc solid-phase peptide synthesis | did not interfere with DNA synthesis | non-functional | – | –
2 | B1 | – | Full inhibition | – | –
3 | B2 | – | efficiently inhibited DNA synthesis | – | –
4 | B3 | – | keep the ability of Geminin to inhibit DNA synthesis; also recorded: Full inhibition | effective in inhibiting DNA synthesis | –
5 | B4 | – | inhibited DNA synthesis, although less efficiently compared to the wild-type protein | – | –
6 | B5 | – | not functional | – | ineffective in inhibiting DNA synthesis
